Measurements from the supplement of paper PMC11246515.
± gives the standard deviation of the averaged measurements.

Assay: total protein half-life in vivo (active degradation + dilution); higher = more stable protein
[1] = E. coli NCM3722 delta-clpP delta-lon delta-hslV, growth: N-lim chemostat, doubling time 6 h
[2] = E. coli NCM3722 delta-clpP, growth: N-lim chemostat, doubling time 6 h
[3] = E. coli NCM3722 delta-hslV, growth: N-lim chemostat, doubling time 6 h
[4] = E. coli NCM3722 delta-lon, growth: N-lim chemostat, doubling time 6 h
[5] = E. coli NCM3722 delta-smpB, growth: N-lim chemostat, doubling time 6 h
[6] = wild type E. coli NCM3722, growth: C-lim chemostat, doubling time 6 h
[7] = wild type E. coli NCM3722, growth: C-lim chemostat, doubling time 12 h
[8] = wild type E. coli NCM3722, growth: N-lim chemostat, doubling time 6 h
[9] = wild type E. coli NCM3722, growth: P-lim chemostat, doubling time 6 h
[10] = wild type E. coli NCM3722, growth: P-lim chemostat, doubling time 12 h
[11] = wild type E. coli NCM3722, growth: C-lim chemostat, doubling time 3 h
[12] = wild type E. coli NCM3722, growth: N-lim chemostat, doubling time 12 h

Row | Sequence | total protein half-life in vivo [1] [h] | total protein half-life in vivo [2] [h] | total protein half-life in vivo [3] [h] | total protein half-life in vivo [4] [h] | total protein half-life in vivo [5] [h] | total protein half-life in vivo [6] [h] | total protein half-life in vivo [7] [h] | total protein half-life in vivo [8] [h] | total protein half-life in vivo [9] [h] | total protein half-life in vivo [10] [h] | total protein half-life in vivo [11] [h] | total protein half-life in vivo [12] [h]
1 | MIVKRPVSASLARAFFYIVLLSILSTGIALLTLASSLRDAEAINIAGSLRMQSYRLGYDLQSGSPQLNAHRQLFQQALHSPVLTNLNVWYVPEAVKTRYAHLNANWLEMNNRLSKGDLPWYQANINNYVNQIDLFVLALQHYAERKMLLVVAISLAGGIGIFTLVFFTLRRIRHQVVAPLNQLVTASQRIEHGQFDSPPLDTNLPNELGLLAKTFNQMSSELHKLYRSLEASVEEKTRDLHEAKRRLEVLYQCSQALNTSQIDVHCFRHILQIVRDNEAAEYLELNVGENWRISEGQPNPELPMQILPVTMQETVYGELHWQNSHVSSSEPLLNSVSSMLGRGLYFNQAQKHFQQLLLMEERATIARELHDSLAQVLSYLRIQLTLLKRSIPEDNATAQSIMADFSQALNDAYRQLRELLTTFRLTLQQADLPSALREMLDTLQNQTSAKLTLDCRLPTLALDAQMQVHLLQIIREAVLNAMKHANASEIAVSCVTAPDGNHTVYIRDNGIGIGEPKEPEGHYGLNIMRERAERLGGTLTFSQPSGGGTLVSISFRSAEGEESQLM | 7.015 ± 0.027 | 6.09 ± 0.081 | 6.03 ± 0.085 | 6.24 ± 0.29 | 5.91 ± 0.37 | 6.73 ± 0.72 | 12.6 ± 0.26 | 6.0563 ± 0.0037 | 5.97 ± 0.28 | 11.7 ± 2.1 |  | 
2 | MPIYQIDGLTPVVPEESFVHPTAVLIGDVILGKGVYVGPNASLRGDFGRIVVKDGANIQDNCVMHGFPEQDTVVGEDGHIGHSAILHGCIIRRNALVGMNAVVMDGAVIGENSIVGASAFVKAKAEMPANYLIVGSPAKAIRELSEQELAWKKQGTHEYQVLVTRCKQTLHQVEPLREIEPGRKRLVFDENLRPKQ | 5.05 ± 0.96 | 4.12 ± 0.18 | 4.15 ± 0.16 | 5.43 ± 0.8 | 3.9 ± 0.21 |  | 11.6 ± 2.7 | 4.19 ± 0.87 | 5.81 ± 0.34 | 12.9 ± 0.92 | 3.49 ± 0.39 | 6.81
3 | MSGSNTAISRRRLLQGAGAMWLLSVSQVSLAAVSQVVAVRVWPASSYTRVTVESNRQLKYKQFALSNPERVVVDIEDVNLNSVLKGMAAQIRADDPFIKSARVGQFDPQTVRMVFELKQNVKPQLFALAPVAGFKERLVMDLYPANAQDMQDPLLALLEDYNKGDLEKQVPPAQSGPQPGKAGRDRPIVIMLDPGHGGEDSGAVGKYKTREKDVVLQIARRLRSLIEKEGNMKVYMTRNEDIFIPLQVRVAKAQKQRADLFVSIHADAFTSRQPSGSSVFALSTKGATSTAAKYLAQTQNASDLIGGVSKSGDRYVDHTMFDMVQSLTIADSLKFGKAVLNKLGKINKLHKNQVEQAGFAVLKAPDIPSILVETAFISNVEEERKLKTATFQQEVAESILAGIKAYFADGATLARRG | 4.83 ± 0.39 | 5.68 ± 1.5 | 5.1 ± 0.2 | 5.12 ± 0.18 | 4.18 ± 0.3 | 4.852 ± 0.02 | 9.06 ± 0.98 | 5.19 ± 1.1 | 5.29 ± 0.18 | 10.4 ± 0.28 | 2.74 ± 0.23 | 8.626 ± 0.061
4 | MRKTVAFGFVGTVLDYAGRGSQRWSKWRPTLCLCQQESLVIDRLELLHDARSRSLFETLKRDIASVSPETEVVSVEIELHNPWDFEEVYACLHDFARGYEFQPEKEDYLIHITTGTHVAQICWFLLAEARYLPARLIQSSPPRKKEQPRGPGEVTIIDLDLSRYNAIASRFAEERQQTLDFLKSGIATRNPHFNRMIEQIEKVAIKSRAPILLNGPTGAGKSFLARRILELKQARHQFSGAFVEVNCATLRGDTAMSTLFGHVKGAFTGARESREGLLRSANGGMLFLDEIGELGADEQAMLLKAIEEKTFYPFGSDRQVSSDFQLIAGTVRDLRQLVAEGKFREDLYARINLWTFTLPGLRQRQEDIEPNLDYEVERHASLTGDSVRFNTEARRAWLAFATSPQATWRGNFRELSASVTRMATFATSGRITLDVVEDEINRLRYNWQESRPSALTALLGAEAENIDLFDRMQLEHVIAICRQAKSLSAAGRQLFDVSRQGKASVNDADRLRKYLARFGLTWEAVQDQHSSS |  |  |  | 4.02 |  |  |  |  |  |  |  | 
5 | MPRSTWFKALLLLVALWAPLSQAETGWQPIQETIRKSDKDNRQYQAIRLDNGMVVLLVSDPQAVKSLSALVVPVGSLEDPEAYQGLAHYLEHMSLMGSKKYPQADSLAEYLKMHGGSHNASTAPYRTAFYLEVENDALPGAVDRLADAIAEPLLDKKYAERERNAVNAELTMARTRDGMRMAQVSAETINPAHPGSKFSGGNLETLSDKPGNPVQQALKDFHEKYYSANLMKAVIYSNKPLPELAKMAADTFGRVPNKESKKPEITVPVVTDAQKGIIIHYVPALPRKVLRVEFRIDNNSAKFRSKTDELITYLIGNRSPGTLSDWLQKQGLVEGISANSDPIVNGNSGVLAISASLTDKGLANRDQVVAAIFSYLNLLREKGIDKQYFDELANVLDIDFRYPSITRDMDYVEWLADTMIRVPVEHTLDAVNIADRYDAKAVKERLAMMTPQNARIWYISPKEPHNKTAYFVDAPYQVDKISAQTFADWQKKAADIALSLPELNPYIPDDFSLIKSEKKYDHPELIVDESNLRVVYAPSRYFASEPKADVSLILRNPKAMDSARNQVMFALNDYLAGLALDQLSNQASVGGISFSTNANNGLMVNANGYTQRLPQLFQALLEGYFSYTATEDQLEQAKSWYNQMMDSAEKGKAFEQAIMPAQMLSQVPYFSRDERRKILPSITLKEVLAYRDALKSGARPEFMVIGNMTEAQATTLARDVQKQLGADGSEWCRNKDVVVDKKQSVIFEKAGNSTDSALAAVFVPTGYDEYTSSAYSSLLGQIVQPWFYNQLRTEEQLGYAVFAFPMSVGRQWGMGFLLQSNDKQPSFLWERYKAFFPTAEAKLRAMKPDEFAQIQQAVITQMLQAPQTLGEEASKLSKDFDRGNMRFDSRDKIVAQIKLLTPQKLADFFHQAVVEPQGMAILSQISGSQNGKAEYVHPEGWKVWENVSALQQTMPLMSEKNE | 6.72 ± 0.29 | 6.24 ± 0.52 | 5.96 ± 0.35 | 6.46 ± 0.14 | 5.53 ± 0.073 | 5.91 ± 0.59 | 11.5 ± 0.5 | 6.17 ± 0.092 | 5.28 ± 0.059 | 11.1 ± 0.72 | 3.05 ± 0.33 | 11.7 ± 0.35
6 | MSIDFTPGIINTYHGDIYNCTTNTDNAKTPDTPKWPCDNWEEQQPINSTFSGEGYISDQYDLAQHQLQQINACHTNTTYTNADYSKVVAQLVSLITNIETISSTQLTQQTQSILNQINNIRYEKNKSAECRIIVIANPKPDKAIITKISVEEGIPITFSVQTMFSDTNFIAEQRADLPTNIKDIQSLYQKMTKLYIEHSENKNRMKVFAGTNFIDFNMTGQNLSGFVLTLSRFYFEDLLNINFTDANLGKVRISGEILLG |  | 5.86 |  |  |  |  |  |  |  | 14.6 |  | 8.68
7 | MAMVEMQTTAALAESRRKMQARRRLKNRIALTLSMATMAFGLFWLIWILMSTITRGIDGMSLALFTEMTPPPNTEGGGLANALAGSGLLILWATVFGTPLGIMAGIYLAEYGRKSWLAEVIRFINDILLSAPSIVVGLFVYTIVVAQMEHFSGWAGVIALALLQVPIVIRTTENMLKLVPYSLREAAYALGTPKWKMISAITLKASVSGIMTGILLAIARIAGETAPLLFTALSNQFWSTDMMQPIANLPVTIFKFAMSPFAEWQQLAWAGVLIITLCVLLLNILARVVFAKNKHG | 6.78 ± 1.7 | 5.74 ± 0.15 | > 8 | 4.84 | 4.97 ± 0.05 | 5.11 ± 0.51 | 12.1 ± 1.3 | 5.15 ± 0.12 | 4.95 ± 0.35 | 9.13 ± 0.56 | 3.37 | 10.6 ± 2
8 | MEKTYNPQDIEQPLYEHWEKQGYFKPNGDESQESFCIMIPPPNVTGSLHMGHAFQQTIMDTMIRYQRMQGKNTLWQVGTDHAGIATQMVVERKIAAEEGKTRHDYGREAFIDKIWEWKAESGGTITRQMRRLGNSVDWERERFTMDEGLSNAVKEVFVRLYKEDLIYRGKRLVNWDPKLRTAISDLEVENRESKGSMWHIRYPLADGAKTADGKDYLVVATTRPETLLGDTGVAVNPEDPRYKDLIGKYVILPLVNRRIPIVGDEHADMEKGTGCVKITPAHDFNDYEVGKRHALPMINILTFDGDIRESAQVFDTKGNESDVYSSEIPAEFQKLERFAARKAVVAAVDALGLLEEIKPHDLTVPYGDRGGVVIEPMLTDQWYVRADVLAKPAVEAVENGDIQFVPKQYENMYFSWMRDIQDWCISRQLWWGHRIPAWYDEAGNVYVGRNEDEVRKENNLGADVVLRQDEDVLDTWFSSALWTFSTLGWPENTDALRQFHPTSVMVSGFDIIFFWIARMIMMTMHFIKDENGKPQVPFHTVYMTGLIRDDEGQKMSKSKGNVIDPLDMVDGISLPELLEKRTGNMMQPQLADKIRKRTEKQFPNGIEPHGTDALRFTLAALASTGRDINWDMKRLEGYRNFCNKLWNASRFVLMNTEGQDCGFNGGEMTLSLADRWILAEFNQTIKAYREALDSFRFDIAAGILYEFTWNQFCDWYLELTKPVMNGGTEAELRGTRHTLVTVLEGLLRLAHPIIPFITETIWQRVKVLCGITADTIMLQPFPQYDASQVDEAALADTEWLKQAIVAVRNIRAEMNIAPGKPLELLLRGCSADAERRVNENRGFLQTLARLESITVLPADDKGPVSVTKIIDGAELLIPMAGLINKEDELARLAKEVAKIEGEISRIENKLANEGFVARAPEAVIAKEREKLEGYAEAKAKLIEQQAVIAAL | 5.35 ± 0.76 | 5.48 ± 1.1 | 4.68 ± 0.11 | 5.17 ± 0.062 | 4.417 ± 0.013 | 5.796 ± 0.013 | 10.5 ± 0.32 | 4.721 ± 0.046 | 5.92 ± 0.23 | 10.7 ± 0.61 | 3 ± 0.27 | 7.86 ± 0.2
9 | MSNVQEWQQLANKELSRREKTVDSLVHQTAEGIAIKPLYTEADLDNLEVTGTLPGLPPYVRGPRATMYTAQPWTIRQYAGFSTAKESNAFYRRNLAAGQKGLSVAFDLATHRGYDSDNPRVAGDVGKAGVAIDTVEDMKVLFDQIPLDKMSVSMTMNGAVLPVLAFYIVAAEEQGVTPDKLTGTIQNDILKEYLCRNTYIYPPKPSMRIIADIIAWCSGNMPRFNTISISGYHMGEAGANCVQQVAFTLADGIEYIKAAISAGLKIDDFAPRLSFFFGIGMDLFMNVAMLRAARYLWSEAVSGFGAQDPKSLALRTHCQTSGWSLTEQDPYNNVIRTTIEALAATLGGTQSLHTNAFDEALGLPTDFSARIARNTQIIIQEESELCRTVDPLAGSYYIESLTDQIVKQARAIIQQIDEAGGMAKAIEAGLPKRMIEEASAREQSLIDQGKRVIVGVNKYKLDHEDETDVLEIDNVMVRNEQIASLERIRATRDDAAVTAALNALTHAAQHNENLLAAAVNAARVRATLGEISDALEVAFDRYLVPSQCVTGVIAQSYHQSEKSASEFDAIVAQTEQFLADNGRRPRILIAKMGQDGHDRGAKVIASAYSDLGFDVDLSPMFSTPEEIARLAVENDVHVVGASSLAAGHKTLIPELVEALKKWGREDICVVAGGVIPPQDYAFLQERGVAAIYGPGTPMLDSVRDVLNLISQHHD |  |  |  |  |  |  |  |  |  |  | 3.42 | 
